{
  "source": "paper PMC9246715",
  "about": "“Bacillus subtilis biofilm matrix components target seed oil bodies to promote growth and anti-fungal resistance in melon” (Nature Microbiology, 2022)",
  "proteins": {"B1": {"name": "amyloid protein TasA (natural protein, B. subtilis, UniProt P54507 28-261, looked up)", "chain": "AFNDIKSKDATFASGTLDLSAKENSASVNLSNLKPGDKLTKDFQFENNGSLAIKEVLMALNYGDFKANGGSNTSPEDFLSQFEVTLLTVGKEGGNGYPKNIILDDANLKDLYLMSAKNDAAAAEKIKKQIDPKFLNASGKVNVATIDGKTAPEYDGVPKTPTDFDQVQMEIQFKDDKTKDEKGLMVQNKYQGNSIKLQFSFEATQWNGLTIKKDHTDKDGYVKENEKAHSEDKN", "notes": "TasA, amyloid protein of the extracellular matrix of Bacillus subtilis biofilms; also called purified TasA"}},
  "molecular_target": "the molecule itself",
  "assay": "thioflavin T fluorescence (polymerization kinetics) + TEM; purified TasA 0.4 or 0.2 mg/ml in buffer (20 mM Tris, 50 mM NaCl, pH 7) or seed apoplastic fluid, 20 µM ThT, 30 °C, shaking",
  "data": [
    {"protein": "B1", "values": [
      {"measurement": "binding result", "value": "binds"}
    ]}
  ]
}
